In patent US9163032B2, “Esters of DCPLA and methods of treatment using the same” (Blanchette Rockefeller Neurosciences Institute, priority 2011, dated 2015):

How the values were obtained:
PKC-α = PKC-α (Homo sapiens, UniProt P17252); assay: PKC activation assay with purified PKC-α isozyme; assay type: biochemical
Description: For measurement of PKC activation by DCPLA-ME, activation of recombinant PKC-α, PKC-ε, and PKC-δ was evaluated. DCPLA-ME induced activation was measured in the absence of diacylglycerol (DAG) and phosphatidylserine (PS) as described earlier. See Nelson, T. J. et al., J. Biol. Chem., 2009, 284: 34514-34521, and Kanno, T. et al., J. Cell Physiol., 2009, 221: 183-188. Individual enzymes were incubated for 15 min at 37° C. in the presence of 10 μM histones, 4.89 mM CaCl2, 10 mM MgCl2, 20 mM HEPES (pH 7.4), 0.8 mM EDTA, 4 mM EGTA, 4% glycerol, 8 μg/ml aprotinin, 8 μg/ml leupeptin, 2 mM benzamidine, and 0.5 μCi of [γ-^32P]ATP. Purified PKC-α, PKC-ε and PKC-δ were preincubated with DCPLA-ME for 5 min at room temperature. [^32P]-Phosphoprotein formation was measured by adsorption onto phosphocellulose.
To measure PKC, 10 μl of cell homogenate or purified PKC isozyme was incubated for 15 min at 37° C. in the presence of 10 μM histones, 4.89 mM CaCl2, 1.2 μg/μl phosphatidyl-L-serine, 0.18 μg/μl 1,2-dioctanoyl-sn-glycerol, 10 mM MgCl2, 20 mM HEPES (pH 7.4), 0.8 mM EDTA, 4 mM EGTA, 4% glycerol, 8 μg/ml aprotinin, 8 μg/ml leupeptin, and 2 mM benzamidine. [γ32P]ATP (0.5 μCi) was added and 32P-phosphoprotein formation was measured by adsorption onto phosphocellulose as described previously. […]
PKC activity of each compound was measured in the absence of diacylglycerol and phosphatidyl-L-serine and PKC-δ and PKC-ε were measured in the absence of added EGTA and CaCl2, as described by Kanno et al., J. Lipid Res., 2006, 47: 1146-1156. […] To determine their PKC isozyme specificity, the compounds were pre-incubated with purified isoforms of PKC for five minutes and the PKC activity was measured radiometrically.
The activation and PKC isozyme specificity of DCPLA-ethyl ester was measured following the procedures in Example 1(B) and (C), except that 9 ng of the purified isozyme was used and it was pre-incubated for 5 minutes at room temperature (FIG. 3). PKC-ε activation by DCPLA-tert-butyl ester and DCPLA-retinyl ester was measured in the same manner as DCPLA-ethyl ester (FIG. 3).

[1] = system: rat primary hippocampal neurons; assay: Neurotoxic effect of Aβ1-42 oligomers, MTT viability assay; assay type: cell-based; conditions: 20 hr
Description: Amylospheroids (ASPDs) and Aβ monomers were prepared following Hoshi, M., et al. (2003) Proc Natl Acad Sci USA 100, 6370-6375, and Noguchi, A., et al. (2009) J Biol Chem 284, 32895-32905. Briefly, Aβ1-42 was dissolved in 1,1,1,3,3,3-hexafluoro-2-propanol and incubated overnight at 4° C. and then 3 hr at 37° C. The dissolved Aβ1-42 was then lyophilized in 1.5 ml polypropylene centrifuge tubes at 40 nmol/tube concentration. For preparing the ASPDs, the lyophilized Aβ was dissolved in phosphate buffered saline (PBS) without Ca^2+ or Mg^2+ at less than 50 μM concentration and rotated for 14 hr at 4° C. After incubation, the Aβ solution was purified using a 100 kDa molecular mass cutoff filter (Amicon Ultra, Millipore) and the high-molecular weight fraction was saved to obtain the most toxic ASPDs. Aβ derived diffusible ligands (ADDLs) were produced as previously described. See Lambert, M. P et al., Proc. Natl. Acad. Sci. USA, 1998, 95: 6448-6453. Briefly, Aβ1-42 was solubilized at 5 mM in dimethyl sulfoxide, diluted to 100 μM in F12k medium and was incubated at 4° C. for 24 hr. The solution was centrifuged at 14000×g for 10 min at 4° C. and the supernatant was used as the ADDLs.
Viability of cells was measured by MTT assay. MTT (i.e., 3-(4,5-dimethylthiazol-2-yl)-2,5-diphenyltetrazolium bromide) is a tetrazolium salt that is cleaved to formazan by the succinate dehydrogenase, which is only active in viable cells. After solubilization of the formazan, the amount of dye can be quantified with a microplate reader at 570 nm along with a reference of 630 nm. For the MTT assay, 5×10^4 primary rat hippocampal neurons from 18-day-old embryonic Sprague-Dawley rat brains or SH-SY5Y cells were plated on each well of 24-well plates coated with poly-D-lysine. After treatment, the cells were washed with 1× PBS and were incubated with 200 μl of 1 mg/ml MTT solution (Sigma, USA) at 37° C. for 2 hr. Then the MTT-solution was removed and the cells were lysed with 200 μl isopropanol containing 0.04 M HCl and […] for 10 min. Finally, the reading was taken at 570 nm and 630 nm. All the samples were done in triplicate and the data were represented as the percentage of control.
To assess the neurotoxic effect of different sized oligomers, rat primary hippocampal neurons were treated with variable concentrations of these Aβ1-42 species for 20 hr. Viability of the treated cells was compared to untreated cells using the MTT assay described above.

Row | effect on PKC-α (PKC-α) | Compound | Viability of primary neuron ([1]; 0.5 nM) | Viability of primary neuron ([1]; 1 nM) | Viability of primary neuron ([1]; 2 nM) | Viability of primary neuron ([1]; 5 nM) | Viability of primary neuron ([1]; 10 nM) | Viability of primary neuron ([1]; 50 nM) | Viability of primary neuron ([1]; 50 nM, listed as ASPDs) | Viability of primary neuron ([1]; 500 nM)
1 | did not have a major effect | CCCCCC1CC1CC1CC1CCCCCCCC(=O)OC (stereo not drawn) [DCPLA-ME, DCPLA methyl ester] |  |  |  |  |  |  |  | 
2 |  | ASPD: Amylospheroids from Aβ1-42, 100 kDa filter retentate, containing 39 monomers on average | 96.12 ± 0.733 % of control | 89.64 ± 5.99 % of control | 87.75 ± 0.94 % of control | 70.95 ± 1.89 % of control | 68.68 ± 0.84 % of control | 57.55 ± 3.35 % of control | 57.1±4.9 % of control | 52.94 ± 3.75 % of control
